Measured values from patent US20240117030A1 (Pfizer, published 2024).
Changes are numbered by the printed parent chain. Blank lines part the entries; values can stand above or below the binder they belong to.

Assays:
human IL-4 = target: T1, human IL-4 (human, UniProt P05112 25-153); assay: cell-based or functional assay
T1 sequence (looked up): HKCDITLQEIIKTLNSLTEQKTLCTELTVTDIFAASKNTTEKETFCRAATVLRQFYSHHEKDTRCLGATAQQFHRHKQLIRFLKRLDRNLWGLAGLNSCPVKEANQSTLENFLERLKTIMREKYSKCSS

[1] = target: T2, recombinant human IL-33 (R&D Systems 3625-IL), reduced with DTT (human, UniProt O95760 112-270, limits assumed); assay: cell-based or functional assay
T2 sequence (looked up): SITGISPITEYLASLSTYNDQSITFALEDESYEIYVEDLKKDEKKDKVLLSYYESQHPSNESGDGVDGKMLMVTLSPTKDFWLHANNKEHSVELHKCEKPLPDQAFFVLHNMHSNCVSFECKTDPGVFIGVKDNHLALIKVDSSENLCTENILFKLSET

- IC50 [nM] versus reduced human IL-33 (R&D), IC50 (AVE) [1]: 0.014 nM
B2: IL33-0698 (antibody, IgG1, V domains shown)
VH: EVQLVESGGGLVQPGGSLRLSCAASGFTFSSYWMYWVRQAPGKGLEWVAAITPNAHAGYYPESVKGRFTISRDNAKNSLYLQMNSLRAEDTAVYYCARGHYYYTSYSLGYWGQGTLVTVSS
VL: DIQMTQSPSSLSASVGDRVTITCRASQPISKHLDWYQQKPGKAPKLLIYFTNNLQTGVPSRFSGSGSGTDFTLTISSLQPEDFATYYCFQYKQGWTFGGGTKVEIK

- IC50 [nM] versus reduced human IL-33 (R&D), IC50 (AVE) [1]: 0.007 nM
B3: IL33-0711 (antibody, IgG1, V domains shown)
VH: B2 VH
VL: B2 VL with N52K, Q55K, K92N

- IC50 [nM] versus reduced human IL-33 (R&D), IC50 (AVE) [1]: 0.01 nM
B4: IL33-0712 (antibody, IgG1, V domains shown)
VH: B2 VH
VL: B2 VL with N52K, T56S, K92N

- IC50 [nM] versus reduced human IL-33 (R&D), IC50 (AVE) [1]: 0.013 nM
B5: IL33-0710 (antibody, IgG1, V domains shown)
VH: B2 VH
VL: B2 VL with N52K, Q55V, K92N

- IC50 [nM] versus reduced human IL-33 (R&D), IC50 (AVE) [1]: 0.013 nM
B6: IL33-0701 (antibody, IgG1, V domains shown)
VH: B2 VH with A55K, H56G, A57V, G58D
VL: B2 VL

- CD23: Fold bioactivity relative to IL4-0002 (human IL-4): 0.7 fold
- CD23 IC50 [pM] (human IL-4): 3.2 pM
B8: IL4-1040 (antibody, human IgG1, kappa, V domains shown)
VH: EVTLRESGPALVKPTQTLTLTCTFSGFSLSNFGEGLSWIRQPPGKGLEWLAHIYWDDDKRYNPSLKSRLTISKDTSRNQVVLTMTNMDPVDTATYYCARRETVFYWYFDVWGQGTTVTVSS
VL: DIQMTQSPSSLSASVGDRVTITCRASQSVDEEGDSYMNWYQQKPGKAPKLLIYAASNLESGVPSRFSGSGSGTDFTLTISSLQPEDFATYYCQQSNKDPPTFGGGTKVEIKR

Continued, binder first:

B1: IL4-0002 (antibody, human IgG1, kappa)
heavy: EVTLRESGPALVKPTQTLTLTCTFSGFSLSNFGEGLSWIRQPPGKGLEWLAHIYWDDDKRYNPSLKSRLTISKDTSRNQVVLTMTNMDPVDTATYYCARRETVFYWYFDVWGQGTTVTVSSASTKGPSVFPLAPSSKSTSGGTAALGCLVKDYFPEPVTVSWNSGALTSGVHTFPAVLQSSGLYSLSSVVTVPSSSLGTQTYICNVNHKPSNTKVDKKVEPKSCDKTHTCPPCPAPEAAGAPSVFLFPPKPKDTLMISRTPEVTCVVVDVSHEDPEVKFNWYVDGVEVHNAKTKPREEQYNSTYRVVSVLTVLHQDWLNGKEYKCKVSNKALPAPIEKTISKAKGQPREPQVYTLPPSREEMTKNQVSLTCLVKGFYPSDIAVEWESNGQPENNYKTTPPVLDSDGSFFLYSKLTVDKSRWQQGNVFSCSVMHEALHNHYTQKSLSLSPGK
light: DIQMTQSPSSLSASVGDRVTITCKASQSVDEDGDSYMNWYQQKPGKAPKLLIYAASNLESGVPSRFSGSGSGTDFTLTISSLQPEDFATYYCQQSNEDPPTFGGGTKVEIKRTVAAPSVFIFPPSDEQLKSGTASVVCLLNNFYPREAKVQWKVDNALQSGNSQESVTEQDSKDSTYSLSSTLTLSKADYEKHKVYACEVTHQGLSSPVTKSFNRGEC
- CD23: Fold bioactivity relative to IL4-0002 (human IL-4): 1 fold
- CD23 IC50 [pM] (human IL-4): 2.1 pM

B7: IL4-0037 (antibody, IgG1, V domains shown)
VH: B8 VH with N62S, P63T, S67T
VL: DIQMTQSPSSLSASVGDRVTITCKASQSVDEDGDSYMNWYQQKPGKAPKLLIYAASNLESGVPSRFSGSGSGTDFTLTISSLQPEDFATYYCQQSNEDPPTFGGGTKVEIK
- CD23: Fold bioactivity relative to IL4-0002 (human IL-4): 1.3 fold
- CD23 IC50 [pM] (human IL-4): 1.6 pM

B9: IL4-0157 (antibody, IgG1, V domains shown)
VH: B8 VH with N62S, P63T, S67T
VL: B7 VL with K24R, D32E, N96H, E97K
- CD23: Fold bioactivity relative to IL4-0002 (human IL-4): 0.2 fold
- CD23 IC50 [pM] (human IL-4): 9.3 pM

B10: IL4-0749 (antibody, human IgG1, kappa, V domains shown)
VH: B8 VH
VL: B8 VL with K97E
- CD23: Fold bioactivity relative to IL4-0002 (human IL-4): 0.9 fold
- CD23 IC50 [pM] (human IL-4): 2.4 pM
